B1: non-biotinylated peptide #20 with NH2-Cys-Ser-Lys-Lys-Gly amino terminal spacer (peptide)
peptide: H-CSKKGPNLSLPVPGAPPTP
B2: human recombinant 30 kDa inhibin A (ligand)
chain 1: STPLMSWPWSPSALRLLQRPPEEPAAHANCHRVALNISFQELGWERWIVYPPSFIFHYCHGGCGLHIPPNLSLPVPGAPPTPAQPYSLLPGAQPCCAALPGTMRPLHVRTTSDGGYSFKYETVPNLLTQHCACI
chain 2: GLECDGKVNICCKKQFFVSFKDIGWNDWIIAPSGYHANYCEGECPSHIAGTSGSSLSFHSTVINHYRMRGHSPFANLKSCCVPTKLRPMSMLYYDDGQNIIKKDIQNMIVEECGCS
B3: non-biotinylated peptide #5 with NH2-Cys-Ser-Lys-Lys-Gly amino terminal spacer (peptide)
peptide: H-CSKKGWSPSALRLLQRPPE
B4: non-biotinylated peptide #30 with NH2-Cys-Ser-Lys-Lys-Gly amino terminal spacer (peptide)
peptide: H-CSKKGRTTSDGGYSFKYET
B5: biotinylated peptide #27 (Set 1) of the human (alpha)C subunit (peptide)
peptide: Biotin-SGSGAALPGTMRPLHVRT
B6: biotinylated peptide #32 (Set 1) of the human (alpha)C subunit (peptide)
peptide: Biotin-SGSGSFKYETVPNLLTQH
B7: biotinylated peptide #30 (Set 1) of the human (alpha)C subunit (peptide)
peptide: Biotin-SGSGRTTSDGGYSFKYET
B8: biotinylated peptide #4 (Set 1) of the human (alpha)C subunit (peptide)
peptide: Biotin-SGSGMSWPWSPSALRLLQ
B9: biotinylated peptide #22 (Set 1) of the human (alpha)C subunit (peptide)
peptide: Biotin-SGSGGAPPTPAQPYSLLP
B10: biotinylated peptide #5 (Set 1) of the human (alpha)C subunit (peptide)
peptide: Biotin-SGSGWSPSALRLLQRPPE
B11: biotinylated peptide #8 (Set 1) of the human (alpha)C subunit (peptide)
peptide: Biotin-SGSGPEEPAAHANCHRVA
B12: biotinylated peptide #31 (Set 1) of the human (alpha)C subunit (peptide)
peptide: Biotin-SGSGDGGYSFKYETVPNL
B13: biotinylated peptide #29 (Set 1) of the human (alpha)C subunit (peptide)
peptide: Biotin-SGSGPLHVRTTSDGGYSF
B14: biotinylated peptide #18 (Set 1) of the human (alpha)C subunit (peptide)
peptide: Biotin-SGSGGGCGLHIPPNLSLP
B15: biotinylated peptide #25 (Set 1) of the human (alpha)C subunit (peptide)
peptide: Biotin-SGSGLPGAQPCCAALPGT
modifications: cysteine pairing not given here
B16: biotinylated peptide #19 (Set 1) of the human (alpha)C subunit (peptide)
peptide: Biotin-SGSGLHIPPNLSLPVPGA
B17: biotinylated peptide #23 (Set 1) of the human (alpha)C subunit (peptide)
peptide: Biotin-SGSGTPAQPYSLLPGAQP
B18: biotinylated peptide #24 (Set 1) of the human (alpha)C subunit (peptide)
peptide: Biotin-SGSGPYSLLPGAQPCCAA
modifications: cysteine pairing not given here
B19: biotinylated peptide #17 (Set 1) of the human (alpha)C subunit (peptide)
peptide: Biotin-SGSGHYCHGGCGLHIPPN
modifications: cysteine pairing not given here
B20: biotinylated peptide #26 (Set 1) of the human (alpha)C subunit (peptide)
peptide: Biotin-SGSGQPCCAALPGTMRPL
modifications: cysteine pairing not given here
B21: biotinylated peptide #3 (Set 1) of the human (alpha)C subunit (peptide)
peptide: Biotin-SGSGSTPLMSWPWSPSAL
B22: biotinylated peptide #20 (Set 1) of the human (alpha)C subunit (peptide)
peptide: Biotin-SGSGPNLSLPVPGAPPTP
B23: biotinylated peptide #28 (Set 1) of the human (alpha)C subunit (peptide)
peptide: Biotin-SGSGGTMRPLHVRTTSDG
B24: biotinylated peptide #33 (Set 1) of the human (alpha)C subunit (peptide)
peptide: Biotin-SGSGETVPNLLTQHCACI
modifications: cysteine pairing not given here
B25: biotinylated peptide #6 (Set 1) of the human (alpha)C subunit (peptide)
peptide: Biotin-SGSGALRLLQRPPEEPAA
B26: biotinylated peptide #7 (Set 1) of the human (alpha)C subunit (peptide)
peptide: Biotin-SGSGLQRPPEEPAAHANC
B27: biotinylated peptide #21 (Set 1) of the human (alpha)C subunit (peptide)
peptide: Biotin-SGSGLPVPGAPPTPAQPY
B28: biotinylated peptide #9 (Set 1) of the human (alpha)C subunit (peptide)
peptide: Biotin-SGSGAAHANCHRVALNIS
B29: biotinylated peptide #15 (Set 1) of the human (alpha)C subunit (peptide)
peptide: Biotin-SGSGVYPPSFIFHYCHGG
B30: biotinylated peptide #16 (Set 1) of the human (alpha)C subunit (peptide)
peptide: Biotin-SGSGSFIFHYCHGGCGLH
modifications: cysteine pairing not given here
B31: biotinylated peptide #10 (Set 1) of the human (alpha)C subunit (peptide)
peptide: Biotin-SGSGNCHRVALNISFQEL
B32: biotinylated peptide #12 (Set 1) of the human (alpha)C subunit (peptide)
peptide: Biotin-SGSGISFQELGWERWIVY
B33: biotinylated peptide #14 (Set 1) of the human (alpha)C subunit (peptide)
peptide: Biotin-SGSGERWIVYPPSFIFHY
B34: biotinylated peptide #13 (Set 1) of the human (alpha)C subunit (peptide)
peptide: Biotin-SGSGELGWERWIVYPPSF
B35: biotinylated peptide #11 (Set 1) of the human (alpha)C subunit (peptide)
peptide: Biotin-SGSGVALNISFQELGWER

Where no end group is shown, it is not given here. The star is where a group is joined. Biotin = O=C1N[C@H]2[C@H](CS[C@H]2CCCCC(=O)*)N1 Where only a bound is given, the exact number is not on record here.

One assay addresses antiserum As #128 (sheep polyclonal, raised to the alpha subunit of human inhibin, boosted with human recombinant 30-kDa inhibin). Put plainly: RIA, iodinated hr-inhibin tracer.
Regarding B1, the ED50 turned out to be 150 nM.

Turning to B2, the ED50 was 2 nM.

The target in a further assay is antiserum As #41 (sheep polyclonal, raised to the alpha subunit of human inhibin). The assay can be described thus: RIA, iodinated hr-inhibin tracer.
As to B3, the ED50 turned out to be 0.4 nM.

In another assay the target is rabbit antiserum #1989. Put plainly: RIA, iodinated hr-inhibin tracer.
Regarding B2, the ED50 amounted to 0.1 nM.

In the case of B4, the ED50 amounted to 2500 nM.

For a further assay, the target named is antiserum As #128 (sheep polyclonal, raised to the alpha subunit of human inhibin, boosted with human recombinant 30-kDa inhibin). Put plainly: RIA, competition with iodinated inhibin.
On to B5, for which the ED50 worked out at 2000 nM.

For the molecule B6, the ED50 was found to be 2500 nM.

Consider B7, for which the ED50 is 600 nM.

Take B8: the ED50 was 3800 nM.

On to B9, for which the ED50 was determined as 156 nM.

Regarding B10, the ED50 is 3800 nM.

In the case of B11, the ED50 is 4800 nM.

Turning to B12, the ED50 was determined as 1400 nM.

B13: the ED50 was 156 nM.

For B14, the ED50 worked out at 60 nM.

Turning to B15, the ED50 was 2000 nM.

With B16, the ED50 was under 10 nM.

For B17, the ED50 worked out at 500 nM.

Turning to B18, the ED50 is 900 nM.

As for B19, the ED50 came to 10000 nM.

For the molecule B20, the ED50 came out at 625 nM.

Regarding B21, the ED50 came out at 38000 nM.

Consider B22, for which the ED50 came to 20 nM.

On to B23, for which the ED50 came to 625 nM.

Consider B24, for which the ED50 was 2500 nM.

Consider B25, for which the ED50 is 1800 nM.

As for B26, the ED50 was determined as 1600 nM.

For the molecule B27, the ED50 worked out at 156 nM.

For another assay, the target named is antiserum As #41 (sheep polyclonal, raised to the alpha subunit of human inhibin). The assay can be described thus: RIA, competition with iodinated inhibin.
On to B5, for which the ED50 came out at 5000 nM.

As for B6, the ED50 was determined as 290 nM.

B7: the ED50 turned out to be 2500 nM.

Molecule B8 yielded an ED50 of 1300 nM.

As for B9, the ED50 turned out to be 5000 nM.

B10: the ED50 came out at 0.015 nM.

In turn, B12 returned an ED50 of 2400 nM.

Turning to B13, the ED50 amounted to 5000 nM.

B14 displayed an ED50 of 1050 nM.

B15 registered an ED50 of 5000 nM.

Regarding B16, the ED50 stood at 2100 nM.

The molecule B17 returned an ED50 of 6200 nM.

B18 returned an ED50 of 6200 nM.

Take B19: the ED50 worked out at 1050 nM.

On to B20, for which the ED50 was 1000 nM.

In turn, B22 came in with an ED50 of 3600 nM.

B23: the ED50 came out at 4000 nM.

Regarding B24, the ED50 amounted to 4000 nM.

B25: the ED50 turned out to be 26 nM.

The molecule B26 registered an ED50 of 1250 nM.

The molecule B27 registered an ED50 of 1000 nM.

A further assay concerns the target rabbit antiserum #1989. Put plainly: RIA, competition with iodinated inhibin.
For B5, the ED50 was over 2500 nM.

Consider B6, for which the ED50 is over 2500 nM.

Molecule B7 showed an ED50 of under 10 nM.

B8 yielded an ED50 of over 2500 nM.

In turn, B9 displayed an ED50 of over 2500 nM.

Molecule B10 came in with an ED50 of over 2500 nM.

For the molecule B28, the ED50 is over 2500 nM.

Regarding B11, the ED50 was over 2500 nM.

On to B29, for which the ED50 is over 2500 nM.

In turn, B30 showed an ED50 of over 2500 nM.

B12 came in with an ED50 of over 2500 nM.

Take B13: the ED50 was over 2500 nM.

B31 registered an ED50 of over 2500 nM.

B14: the ED50 was over 2500 nM.

As to B15, the ED50 was over 2500 nM.

B16 displayed an ED50 of over 2500 nM.

As to B17, the ED50 was over 2500 nM.

B18 displayed an ED50 of over 2500 nM.

In turn, B32 had an ED50 of over 2500 nM.

Regarding B19, the ED50 was over 2500 nM.

In turn, B20 showed an ED50 of over 2500 nM.

On to B21, for which the ED50 was over 2500 nM.

B22 registered an ED50 of over 2500 nM.

The molecule B23 displayed an ED50 of over 2500 nM.

Regarding B24, the ED50 was over 2500 nM.

B25: the ED50 was over 2500 nM.

On to B26, for which the ED50 was over 2500 nM.

As to B33, the ED50 was over 2500 nM.

On to B27, for which the ED50 was over 2500 nM.

The molecule B34 registered an ED50 of over 2500 nM.

In turn, B35 yielded an ED50 of over 2500 nM.

The next assay addresses antibody pair of the (alpha)C IFMA: As #128 as coating antibody and As #41 as label. The assay can be described thus: inhibin IFMA; #5 on As #128 and #5 on As #41.
In the case of B3, the % suppression at 2ng inhibin was 73%.

The next assay addresses antiserum As #128 (sheep polyclonal, raised to the alpha subunit of human inhibin, boosted with human recombinant 30-kDa inhibin). Put plainly: inhibin IFMA; #5 on As #128, buffer on As #41.
For the molecule B3, the % suppression at 2ng inhibin was 55%.

The target of a further assay is antiserum As #41 (sheep polyclonal, raised to the alpha subunit of human inhibin). Put plainly: inhibin IFMA; buffer on As #128, #5 on As #41.
The molecule B3 yielded a % suppression at 2ng inhibin of 67%.

A further assay addresses antiserum As #128 (sheep polyclonal, raised to the alpha subunit of human inhibin, boosted with human recombinant 30-kDa inhibin). Put plainly: inhibin IFMA; #20 on As #128, buffer on As #41.
For the molecule B1, the % suppression at 2ng inhibin came out at 13%.

Another assay addresses antiserum As #41 (sheep polyclonal, raised to the alpha subunit of human inhibin). Put plainly: inhibin IFMA; buffer on As #128, #30 on As #41.
Regarding B4, the % suppression at 2ng inhibin was found to be 28%.

The target is the same in the next assay. Put plainly: competitive 2-site assay, peptides incubated with iodinated As #41.
Take B7: the % contribution (competition with inhibin) was found to be 50%.

On to B10, for which the % contribution (competition with inhibin) stood at 50%.

A further assay addresses human recombinant 30 kDa inhibin A (human) (UniProt P05111). Put plainly: RIA, iodinated human inhibin A tracer vs human recombinant inhibin A.
As for “R1 monoclonal antibody (Groome), inhibin (alpha)C subunit”, the ED25 (affinity for inhibin) came out at 1.6 nM.

Another assay deals with antiserum As #41 (sheep polyclonal, raised to the alpha subunit of human inhibin). The assay can be described thus: two-site assay, biotinylated As #41 pre-incubated with peptide, inhibin on As #128 plate.
With B3, the % inhibition – broadly, the share of the control response that was lost under treatment – is 50%.

For another assay, the target named is antiserum As #128 (sheep polyclonal, raised to the alpha subunit of human inhibin, boosted with human recombinant 30-kDa inhibin). The assay can be described thus: two-site assay, peptide pre-incubated on As #128 coated plate, then hr-inhibin, biotinylated As #41.
Regarding B1, the % suppression in binding is 23%.

Consider B3, for which the % suppression in binding worked out at 65%.

The record behind these values is patent US20030162229A1.
